According to patent publication US20160264649A1:

Legend:
Assay in all cases: cell-based or functional assay
[1] = molecular target: HIV-1 Env of isolate 92UG031 (subtype A) (HIV-1)
[2] = molecular target: HIV-1 Env of isolate MGRM-F1-012 (subtype F) (HIV-1)
[3] = molecular target: HIV-1 Env of isolate MGRM-D-022 (subtype D) (HIV-1)
[4] = molecular target: HIV-1 Env of isolate MGRM-F1-021 (subtype F) (HIV-1)
[5] = molecular target: HIV-1 Env of isolate MGRM-F1-020 (subtype F) (HIV-1)
[6] = molecular target: HIV-1 Env of isolate MGRM-F1-016 (subtype F) (HIV-1)
[7] = molecular target: HIV-1 Env of isolate MGRM-F1-004 (subtype F) (HIV-1)
[8] = molecular target: HIV-1 Env of isolate 92WR020 (subtype A) (HIV-1)
[9] = molecular target: HIV-1 Env of isolate MGRM-F1-022 (subtype F) (HIV-1)
[10] = molecular target: HIV-1 Env of isolate MGRM-D-003 (subtype D) (HIV-1)
[11] = molecular target: HIV-1 Env of isolate MGRM-D-018 (subtype D) (HIV-1)
[12] = molecular target: HIV-1 Env of isolate MGRM-F1-010 (subtype F) (HIV-1)
[13] = molecular target: HIV-1 Env of isolate MGRM-F1-017 (subtype F) (HIV-1)
[14] = molecular target: HIV-1 Env of isolate MGRM-AE-001 (subtype AE) (HIV-1)
[15] = molecular target: HIV-1 Env of isolate 92WR009 (subtype A) (HIV-1)
[16] = molecular target: HIV-1 Env of isolate MGRM-AE-005 (subtype AE) (HIV-1)
[17] = molecular target: HIV-1 Env of isolate 92WR024 (subtype A) (HIV-1)
[18] = molecular target: HIV-1 Env of isolate MGRM-D-019 (subtype D) (HIV-1)
[19] = molecular target: HIV-1 Env of isolate MGRM-D-004 (subtype D) (HIV-1)
[20] = molecular target: HIV-1 Env of isolate 93WR029 (subtype A) (HIV-1)
[21] = molecular target: HIV-1 Env of isolate 92UG114 (subtype D) (HIV-1)
[22] = molecular target: HIV-1 Env of isolate 93UG077 (subtype A) (HIV-1)
[23] = molecular target: HIV-1 Env of isolate MGRM-D-016 (subtype D) (HIV-1)
[24] = molecular target: HIV-1 Env of isolate MGRM-AE-008 (subtype AE) (HIV-1)
[25] = molecular target: HIV-1 Env of isolate MGRM-D-026 (subtype D) (HIV-1)
[26] = molecular target: HIV-1 Env of isolate MGRM-D-020 (subtype D) (HIV-1)
[27] = molecular target: HIV-1 Env of isolate MGRM-AE-004 (subtype AE) (HIV-1)
[28] = molecular target: HIV-1 Env of isolate MGRM-F1-008 (subtype F) (HIV-1)
[29] = molecular target: HIV-1 Env of isolate 92WR026 (subtype A) (HIV-1)
[30] = molecular target: HIV-1 Env of isolate 92UG037 (subtype A) (HIV-1)
[31] = molecular target: HIV-1 Env of isolate CMU02 (subtype AE) (HIV-1)
[32] = molecular target: HIV-1 Env of isolate 92TH021 (subtype AE) (HIV-1)
[33] = molecular target: HIV-1 Env of isolate MGRM-D-013 (subtype D) (HIV-1)
[34] = molecular target: HIV-1 Env of isolate MGRM-AE-002 (subtype AE) (HIV-1)
[35] = molecular target: HIV-1 Env of isolate MGRM-F1-015 (subtype F) (HIV-1)
[36] = molecular target: HIV-1 Env of isolate MGRM-D-028 (subtype D) (HIV-1)
[37] = molecular target: HIV-1 Env of isolate MGRM-D-014 (subtype D) (HIV-1)
[38] = molecular target: HIV-1 Env of isolate VLGCA1 (subtype A) (HIV-1)
[39] = molecular target: HIV-1 Env of isolate 94UG103 (subtype A) (HIV-1)
[40] = molecular target: HIV-1 Env of isolate MGRM-D-008 (subtype D) (HIV-1)
[41] = molecular target: HIV-1 Env of isolate MGRM-D-029 (subtype D) (HIV-1)
[42] = molecular target: HIV-1 Env of isolate 92WR021 (subtype A) (HIV-1)
[43] = molecular target: HIV-1 Env of isolate MGRM-D-021 (subtype D) (HIV-1)
[44] = molecular target: HIV-1 Env of isolate MGRM-F1-013 (subtype F) (HIV-1)
[45] = molecular target: HIV-1 Env of isolate 94 KE 105 (subtype AC) (HIV-1)
[46] = molecular target: HIV-1 Env of isolate MGRM-D-005 (subtype D) (HIV-1)
[47] = molecular target: HIV-1 Env of isolate MGRM-AE-003 (subtype AE) (HIV-1)
[48] = molecular target: HIV-1 Env of isolate MGRM-AE-006 (subtype AE) (HIV-1)
[49] = molecular target: HIV-1 Env of isolate MGRM-F1-023 (subtype F) (HIV-1)
[50] = molecular target: HIV-1 Env of isolate MGRM-F1-014 (subtype F) (HIV-1)
[51] = molecular target: HIV-1 Env of isolate MGRM-F1-018 (subtype F) (HIV-1)
[52] = molecular target: HIV-1 Env of isolate MGRM-AE-007 (subtype AE) (HIV-1)
[53] = molecular target: HIV-1 Env of isolate MGRM-D-002 (subtype D) (HIV-1)
[54] = molecular target: HIV-1 Env of isolate MGRM-D-001 (subtype D) (HIV-1)
[55] = molecular target: HIV-1 Env of isolate MGRM-D-024 (subtype D) (HIV-1)
[56] = molecular target: HIV-1 Env of isolate MGRM-F1-006 (subtype F) (HIV-1)
[57] = molecular target: HIV-1 Env of isolate MGRM-D-012 (subtype D) (HIV-1)
[58] = molecular target: HIV-1 Env of isolate MGRM-D-011 (subtype D) (HIV-1)

Sequence of PGT-143 (4980_N08) (antibody) (VH): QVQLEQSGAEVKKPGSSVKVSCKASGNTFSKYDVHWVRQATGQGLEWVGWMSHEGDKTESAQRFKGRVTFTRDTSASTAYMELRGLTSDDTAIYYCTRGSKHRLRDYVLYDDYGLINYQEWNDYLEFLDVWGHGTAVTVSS
Sequence of PGT-143 (4980_N08) (antibody) (VL): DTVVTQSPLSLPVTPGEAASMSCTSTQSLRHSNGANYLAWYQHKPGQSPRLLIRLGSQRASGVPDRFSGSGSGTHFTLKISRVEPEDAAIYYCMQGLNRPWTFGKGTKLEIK
Sequence of PGT-144 (4970_K22) (antibody) (VH): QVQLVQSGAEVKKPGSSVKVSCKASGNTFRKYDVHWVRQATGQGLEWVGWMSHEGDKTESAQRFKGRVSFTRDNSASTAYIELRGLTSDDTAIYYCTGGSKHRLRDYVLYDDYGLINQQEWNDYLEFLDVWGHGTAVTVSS
Sequence of PGT-144 (4970_K22) (antibody) (VL): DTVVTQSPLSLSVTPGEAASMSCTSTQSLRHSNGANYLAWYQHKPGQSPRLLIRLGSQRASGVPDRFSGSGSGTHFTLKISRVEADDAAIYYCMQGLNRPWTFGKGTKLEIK

PGT-143 (4980_N08) (antibody)
IC50 (pseudovirus neutralization) [1]: 0.095 µg/mL | IC50 (pseudovirus neutralization) [2]: > 50 µg/mL | IC50 (pseudovirus neutralization) [3]: > 50 µg/mL | IC50 (pseudovirus neutralization) [4]: > 50 µg/mL | IC50 (pseudovirus neutralization) [5]: 0.98 µg/mL | IC50 (pseudovirus neutralization) [6]: > 50 µg/mL | IC50 (pseudovirus neutralization) [7]: 0.036 µg/mL | IC50 (pseudovirus neutralization) [8]: > 50 µg/mL | IC50 (pseudovirus neutralization) [9]: 0.082 µg/mL | IC50 (pseudovirus neutralization) [10]: > 50 µg/mL | IC50 (pseudovirus neutralization) [11]: > 50 µg/mL | IC50 (pseudovirus neutralization) [12]: > 50 µg/mL | IC50 (pseudovirus neutralization) [13]: 26.3 µg/mL | IC50 (pseudovirus neutralization) [14]: > 50 µg/mL | IC50 (pseudovirus neutralization) [15]: 0.01 µg/mL | IC50 (pseudovirus neutralization) [16]: > 50 µg/mL | IC50 (pseudovirus neutralization) [17]: 0.122 µg/mL | IC50 (pseudovirus neutralization) [18]: 0.277 µg/mL | IC50 (pseudovirus neutralization) [19]: > 50 µg/mL | IC50 (pseudovirus neutralization) [20]: 0.053 µg/mL | IC50 (pseudovirus neutralization) [21]: > 50 µg/mL | IC50 (pseudovirus neutralization) [22]: > 50 µg/mL | IC50 (pseudovirus neutralization) [23]: > 50 µg/mL | IC50 (pseudovirus neutralization) [24]: 0.135 µg/mL | IC50 (pseudovirus neutralization) [25]: 44.6 µg/mL | IC50 (pseudovirus neutralization) [26]: > 50 µg/mL | IC50 (pseudovirus neutralization) [27]: 0.002 µg/mL | IC50 (pseudovirus neutralization) [28]: 0.189 µg/mL | IC50 (pseudovirus neutralization) [29]: 5.36 µg/mL | IC50 (pseudovirus neutralization) [30]: 0.854 µg/mL | IC50 (pseudovirus neutralization) [31]: > 50 µg/mL | IC50 (pseudovirus neutralization) [32]: 0.003 µg/mL | IC50 (pseudovirus neutralization) [33]: 0.386 µg/mL | IC50 (pseudovirus neutralization) [34]: > 50 µg/mL | IC50 (pseudovirus neutralization) [35]: > 50 µg/mL | IC50 (pseudovirus neutralization) [36]: > 50 µg/mL | IC50 (pseudovirus neutralization) [37]: 0.009 µg/mL | IC50 (pseudovirus neutralization) [38]: 17.4 µg/mL | IC50 (pseudovirus neutralization) [39]: > 50 µg/mL | IC50 (pseudovirus neutralization) [40]: 0.153 µg/mL | IC50 (pseudovirus neutralization) [41]: 0.2 µg/mL | IC50 (pseudovirus neutralization) [42]: > 50 µg/mL | IC50 (pseudovirus neutralization) [43]: > 50 µg/mL | IC50 (pseudovirus neutralization) [44]: 0.013 µg/mL | IC50 (pseudovirus neutralization) [45]: 0.368 µg/mL | IC50 (pseudovirus neutralization) [46]: 1.41 µg/mL | IC50 (pseudovirus neutralization) [47]: > 50 µg/mL | IC50 (pseudovirus neutralization) [48]: > 50 µg/mL | IC50 (pseudovirus neutralization) [49]: 0.972 µg/mL | IC50 (pseudovirus neutralization) [50]: 1 ng/mL | IC50 (pseudovirus neutralization) [51]: 0.701 µg/mL | IC50 (pseudovirus neutralization) [52]: 13.6 µg/mL | IC50 (pseudovirus neutralization) [53]: > 50 µg/mL | IC50 (pseudovirus neutralization) [54]: > 50 µg/mL | IC50 (pseudovirus neutralization) [55]: > 50 µg/mL | IC50 (pseudovirus neutralization) [56]: 12.3 µg/mL | IC50 (pseudovirus neutralization) [57]: > 50 µg/mL | IC50 (pseudovirus neutralization) [58]: > 50 µg/mL

PGT-144 (4970_K22) (antibody)
IC50 (pseudovirus neutralization) [1]: 2.17 µg/mL | IC50 (pseudovirus neutralization) [2]: > 50 µg/mL | IC50 (pseudovirus neutralization) [3]: > 50 µg/mL | IC50 (pseudovirus neutralization) [4]: > 50 µg/mL | IC50 (pseudovirus neutralization) [5]: 8.93 µg/mL | IC50 (pseudovirus neutralization) [6]: > 50 µg/mL | IC50 (pseudovirus neutralization) [7]: 0.105 µg/mL | IC50 (pseudovirus neutralization) [8]: > 50 µg/mL | IC50 (pseudovirus neutralization) [9]: 0.382 µg/mL | IC50 (pseudovirus neutralization) [10]: > 50 µg/mL | IC50 (pseudovirus neutralization) [11]: > 50 µg/mL | IC50 (pseudovirus neutralization) [12]: > 50 µg/mL | IC50 (pseudovirus neutralization) [13]: > 50 µg/mL | IC50 (pseudovirus neutralization) [14]: > 50 µg/mL | IC50 (pseudovirus neutralization) [15]: 0.893 µg/mL | IC50 (pseudovirus neutralization) [16]: > 50 µg/mL | IC50 (pseudovirus neutralization) [17]: 16.3 µg/mL | IC50 (pseudovirus neutralization) [18]: > 50 µg/mL | IC50 (pseudovirus neutralization) [19]: > 50 µg/mL | IC50 (pseudovirus neutralization) [20]: 4.39 µg/mL | IC50 (pseudovirus neutralization) [21]: > 50 µg/mL | IC50 (pseudovirus neutralization) [22]: > 50 µg/mL | IC50 (pseudovirus neutralization) [23]: > 50 µg/mL | IC50 (pseudovirus neutralization) [24]: 3.55 µg/mL | IC50 (pseudovirus neutralization) [25]: > 50 µg/mL | IC50 (pseudovirus neutralization) [26]: > 50 µg/mL | IC50 (pseudovirus neutralization) [27]: 0.104 µg/mL | IC50 (pseudovirus neutralization) [28]: 0.507 µg/mL | IC50 (pseudovirus neutralization) [29]: 32.7 µg/mL | IC50 (pseudovirus neutralization) [30]: 8.24 µg/mL | IC50 (pseudovirus neutralization) [31]: > 50 µg/mL | IC50 (pseudovirus neutralization) [32]: 0.052 µg/mL | IC50 (pseudovirus neutralization) [33]: > 50 µg/mL | IC50 (pseudovirus neutralization) [34]: > 50 µg/mL | IC50 (pseudovirus neutralization) [35]: > 50 µg/mL | IC50 (pseudovirus neutralization) [36]: > 50 µg/mL | IC50 (pseudovirus neutralization) [37]: 0.113 µg/mL | IC50 (pseudovirus neutralization) [38]: > 50 µg/mL | IC50 (pseudovirus neutralization) [39]: > 50 µg/mL | IC50 (pseudovirus neutralization) [40]: 9.85 µg/mL | IC50 (pseudovirus neutralization) [41]: 0.459 µg/mL | IC50 (pseudovirus neutralization) [42]: > 50 µg/mL | IC50 (pseudovirus neutralization) [43]: > 50 µg/mL | IC50 (pseudovirus neutralization) [44]: 0.509 µg/mL | IC50 (pseudovirus neutralization) [45]: 0.29 µg/mL | IC50 (pseudovirus neutralization) [46]: 14.8 µg/mL | IC50 (pseudovirus neutralization) [47]: > 50 µg/mL | IC50 (pseudovirus neutralization) [48]: > 50 µg/mL | IC50 (pseudovirus neutralization) [49]: 1.16 µg/mL | IC50 (pseudovirus neutralization) [50]: 14 ng/mL | IC50 (pseudovirus neutralization) [51]: > 50 µg/mL | IC50 (pseudovirus neutralization) [52]: > 50 µg/mL | IC50 (pseudovirus neutralization) [53]: > 50 µg/mL | IC50 (pseudovirus neutralization) [54]: > 50 µg/mL | IC50 (pseudovirus neutralization) [55]: > 50 µg/mL | IC50 (pseudovirus neutralization) [56]: 20.6 µg/mL | IC50 (pseudovirus neutralization) [57]: > 50 µg/mL | IC50 (pseudovirus neutralization) [58]: > 50 µg/mL
